Measured values from patent publication US20160237156A1.

Tests used:
CXCR4 (human) [1] = target: CXCR4 (human) (UniProt P61073); assay: flow cytometry on CXCR4 transfected CHO cells, 1 µg/ml antibody
CXCR4 (human) [2] = target: CXCR4 (human) (UniProt P61073); assay: cell-based or functional assay
[3] = target: SNAP-tag-CXCR4 (Tag-lite labeled CXCR4 cells, Cisbio Bioassays) (UniProt P61073); assay: Tag-lite HTRF competition with 50 nM fluorescent SDF-1 on Tag-lite labeled CXCR4 cells
CXCR4 (human) [4] = target: CXCR4 (human) (UniProt P61073); assay: flow cytometry on Jurkat cells, competition with fluorescein conjugated 12G5 (66.6 nM) as competitor
[5] = target: SNAP-tag-CXCR4 (Tag-lite labeled CXCR4 cells, Cisbio Bioassays) (UniProt P61073); assay: Tag-lite HTRF competition with 50 nM fluorescent SDF-1, Cheng-Prusoff

Chain of CXCR4 (human) (P61073 whole entry): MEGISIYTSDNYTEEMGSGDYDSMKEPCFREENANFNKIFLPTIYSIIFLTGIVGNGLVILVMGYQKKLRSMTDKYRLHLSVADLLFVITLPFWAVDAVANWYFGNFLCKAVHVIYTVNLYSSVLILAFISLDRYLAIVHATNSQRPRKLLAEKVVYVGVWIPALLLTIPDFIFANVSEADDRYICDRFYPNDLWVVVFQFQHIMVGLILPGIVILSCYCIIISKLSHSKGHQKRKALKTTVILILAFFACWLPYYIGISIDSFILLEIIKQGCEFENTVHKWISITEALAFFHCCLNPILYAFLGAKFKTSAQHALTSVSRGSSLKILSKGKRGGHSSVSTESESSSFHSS
Chain of SNAP-tag-CXCR4 (Tag-lite labeled CXCR4 cells, Cisbio Bioassays) (P61073 whole entry): as above

- flow cytometry peak shift (CXCR4 (human) [1]): 73.8%
- inhibition of SDF-1 induced migration of Ramos cells, EC50 (CXCR4 (human) [2]): 8.5 nM
- IC50 [3]: 9.58 nM
- IC50 (CXCR4 (human) [4]): 39.3 nM
- Ki [5]: 2.12 nM
B1: BLV1H12-beta BCCX2 HC 1 IgG (antibody, V domains shown)
VH: QVQLRESGPSLVKPSQTLSLTCTASGFSLSDKAVGWVRQAPGKALEWLGSIDTGGNTGYNPGLKSRLSITKDNSKSQVSLSVSSVTTEDSATYYCTSVHQETKKYQSYRKCRGGRRWCYQKSYTYNYEWHVDVWGQGLLVTVSS
VL: QAVLNQPSSVSGSLGQRVSITCSGSSSNVGNGYVSWYQLIPGSAPRTLIYGDTSRASGVPDRFSGSRSGNTATLTISSLQAEDEADYFCASAEDSSSNAVFGSGTTLTVLG
